Results from patent publication US20080131510.

Legend:
[1] = tested on: Lys*-Pro-Ala-Gly-Leu-Leu-Gly-Cys (SEQ ID NO:2), pendant in PEG(8000)DA hydrogel and complexed with Pt
[2] = tested on: Lys*-Ala-Gly-Leu-Leu-Cys (SEQ ID NO:32)
[3] = tested on: Lys*-Gly-Leu-Cys (SEQ ID NO:33)
[4] = tested on: Lys*-Pro-Ala-Gly-Leu-Leu-Gly-Cys (SEQ ID NO:2)
[5] = tested on: Lys*-Ala-Gly-Leu-Leu-Cys (SEQ ID NO:32); assay: peptide cleavage kinetics by HPLC, 10 nM activated MMP; the filing calls Km 'affinity or binding strength'
[6] = tested on: Lys*-Gly-Leu-Cys (SEQ ID NO:33); assay: as above
[7] = tested on: Lys*-Pro-Ala-Gly-Leu-Leu-Gly-Cys (SEQ ID NO:2); assay: as above

Sequence of matrix metalloprotease-9 (MMP-9), activated (chain, as listed by the source): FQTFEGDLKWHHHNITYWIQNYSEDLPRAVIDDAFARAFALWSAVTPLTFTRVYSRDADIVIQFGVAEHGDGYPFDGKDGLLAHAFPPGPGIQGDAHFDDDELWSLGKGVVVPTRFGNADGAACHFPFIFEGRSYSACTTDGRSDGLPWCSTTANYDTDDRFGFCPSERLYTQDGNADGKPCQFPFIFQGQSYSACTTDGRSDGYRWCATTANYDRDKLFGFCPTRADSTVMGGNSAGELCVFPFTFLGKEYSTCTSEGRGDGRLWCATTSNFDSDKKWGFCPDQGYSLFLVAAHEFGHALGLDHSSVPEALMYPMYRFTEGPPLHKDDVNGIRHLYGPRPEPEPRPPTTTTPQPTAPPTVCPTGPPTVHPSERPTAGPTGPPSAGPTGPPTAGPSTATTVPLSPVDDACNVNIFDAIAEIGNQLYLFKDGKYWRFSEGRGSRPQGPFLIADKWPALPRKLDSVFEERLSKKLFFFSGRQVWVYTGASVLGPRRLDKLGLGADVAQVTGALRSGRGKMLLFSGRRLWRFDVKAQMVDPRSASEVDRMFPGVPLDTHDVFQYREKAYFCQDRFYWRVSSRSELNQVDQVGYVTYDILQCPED

Substance: matrix metalloprotease-9 (MMP-9), activated
- release of cleaved fragment from the PEG(8000)DA hydrogels [1]: the addition of MMP-2 and MMP-9 showed a significantly higher release of cleaved fragment from the PEG(8000)DA hydrogels compared to the control
- Kcat/Km [2]: 252 M⁻¹ s⁻¹
- Vmax [2]: 9.9e-10 M/s
- kcat [2]: 0.04 s⁻¹
- Kcat/Km [3]: 358 M⁻¹ s⁻¹
- Vmax [3]: 5.3e-09 M/s
- kcat [3]: 0.21 s⁻¹
- Kcat/Km [4]: 24000 M⁻¹ s⁻¹
- Vmax [4]: 2.4e-07 M/s
- kcat [4]: 9.6 s⁻¹
- Km [5]: 160 µM
- Km [6]: 600 µM
- Km [7]: 400 µM
